Molecular target: T1, human PCSK9 (Homo sapiens, UniProt Q8NBP7, E620G/G670E/V474I)
T1 construct: made in house
Assay: Serum lipids in C57BL/6 mice expressing human PCSK9 by AAV
Format: in vivo, mouse
Conditions: 30 mg/kg IV bolus
Description: Briefly, 120 C57BL/6 mice expressing human PCSK9 were generated by infection with an engineered adeno associated virus (AAV) coding for human PCSK9, resulting in elevated levels of circulating low density lipoprotein cholesterol (LDL-C). Serum cholesterol analysis was performed using the Cobas Integra 400 plus chemistry analyzer (Roche Diagnostics, Indianapolis, Ind.). Animals were randomized into treatment groups with similar levels of non-HDL-C (LDL-C and VLDL-C), HDL-C and TC. On treatment day 0 (T=0) a subset of mice was euthanized and serum collected to establish that day's baseline levels. Remaining mice were then administered 11F1, 8A3 or anti-keyhole limpethemocyanin (KLH) IgG2 control antibody at 30 mg/kg. via tail vein injection. At days 1 through 5 following injection, subsets of mice were euthanized and whole blood was collected from the vena cava and allowed to coagulate for 30 minutes at room temperature. Following centrifugation at 12,000 rpm with a bench top centrifuge for 10 minutes, serum was collected. Serum cholesterol analysis was performed using the Cobas Integra 400 plus chemistry analyzer.
All cholesterol results were expressed as the mean±standard error of the mean. All pharmacokinetic data were expressed as the mean±standard deviation. The p value of 0.05, determined by 1-way ANOVA was used as a threshold to determine statistical significance between the anti-KLH IgG2 control antibody injected animals and those dosed with anti-PCSK9 antibody at the same time point.

T1 sequence (Q8NBP7 153-692 V474I/E620G/G670E): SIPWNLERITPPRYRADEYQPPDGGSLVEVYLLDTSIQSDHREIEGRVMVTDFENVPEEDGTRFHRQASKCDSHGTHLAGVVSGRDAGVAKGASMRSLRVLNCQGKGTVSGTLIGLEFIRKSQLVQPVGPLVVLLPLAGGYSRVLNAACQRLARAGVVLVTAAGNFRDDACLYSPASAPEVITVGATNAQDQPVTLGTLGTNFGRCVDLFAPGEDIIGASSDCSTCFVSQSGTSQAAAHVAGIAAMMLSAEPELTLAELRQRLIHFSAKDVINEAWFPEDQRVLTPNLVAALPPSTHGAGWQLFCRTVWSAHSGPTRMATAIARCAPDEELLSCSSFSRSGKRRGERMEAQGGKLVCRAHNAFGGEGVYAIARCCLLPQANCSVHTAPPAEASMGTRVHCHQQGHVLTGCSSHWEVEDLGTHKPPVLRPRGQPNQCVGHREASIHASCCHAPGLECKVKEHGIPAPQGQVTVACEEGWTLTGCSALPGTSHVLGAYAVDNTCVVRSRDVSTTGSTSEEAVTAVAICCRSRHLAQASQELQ

## 11F1: anti-PCSK9 ABP, light/heavy variable region SEQ ID NO 465/463 [Antibody 11F1]
Any time point
  lowering of HDL-C vs control animals: No significant lowering of HDL-C
Day 4 only
  lowering of TC vs control animals: 22%
Significant at days 1, 2 and 4 post-injection
  maximum lowering of serum non-HDL-C vs control animals: 59%

From patent US12612465B2, “Formulations comprising PCSK9 specific monoclonal antibodies” (Amgen Inc., priority 2012, dated 2026)
